In the supplement of paper PMC10567573:

B1: FAM164A (parent)
chain: YDPDYIQCPYCQRRFNENAADRHI

Variants of: B1
Test: protein stability index of a GFP-peptide fusion (GPS, HEK-293T) (PSI 1-6); higher = more stable
Conditions: c terminus: a fixed tail appended
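Further: lentivirally expressed fusions sorted by FACS into six bins by GFP to DsRed ratio, PSI derived from sequencing read proportions per bin multiplied by bin number.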

Variant	protein stability index
YDPDKIQCPYCQRRFNENAADRHI [Y5K]	3.21
YDPDHIQCPYCQRRFNENAADRHI [Y5H]	3.69
YDPDMIQCPYCQRRFNENAADRHI [Y5M]	4.9
YDPDLIQCPYCQRRFNENAADRHI [Y5L]	4.25
YDPDWIQCPYCQRRFNENAADRHI [Y5W]	4.68
YDPDCIQCPYCQRRFNENAADRHI [Y5C]	4.01
YDPDGIQCPYCQRRFNENAADRHI [Y5G]	4.14
YDPDAIQCPYCQRRFNENAADRHI [Y5A]	4.05
YDPDRIQCPYCQRRFNENAADRHI [Y5R]	3.52
YDPDYIQCPYCQRRFNENAADRHY [I24Y]	4.01
YDPDYIQCPYCQRRFNENAADRHG [I24G]	4.43
YDPDYIQCPYCQRRFNENAADRHS [I24S]	4.56
YDPDYIQCPYCQRRFNENAADRHQ [I24Q]	4.57
YDPDYIQCPYCQRRFNENAADRHC [I24C]	4.12
YDPDYIQCPYCQRRFNENAADRHT [I24T]	4.18
YDPDYIQCPYCQRRFNENAADRHD [I24D]	4.92
YDPDYIQCPYCQRRFNENAADRHE [I24E]	4.25
YDPDYIQCPYCQRRFNENAADRHA [I24A]	4.74
YDPDYIQCPYAQRRFNENAADRHI [C11A]	3.48
YDPDYIQCPYSQRRFNENAADRHI [C11S]	4.03
YDPDYIQCPYWQRRFNENAADRHI [C11W]	3.42
YDPDYIQCPYYQRRFNENAADRHI [C11Y]	3.45
YDPDYIQCPYIQRRFNENAADRHI [C11I]	3.22
YDPDYIQCPYLQRRFNENAADRHI [C11L]	3.13

Variant	protein stability index
YDPDYIQCPYCQRRFNENAADRKI [H23K]	4.11
YDPDYIQCPYCQRRFNENAADRCI [H23C]	4.54
YDPDYIQCPYCQRRFNENAADRGI [H23G]	4.05
YDPDYIQCPYCQRRFNENAADRFI [H23F]	3.3
YDPDYIQCPYCQRRFNENAADRMI [H23M]	4.4
YDPDYIQCPYCQRRFNENAADRSI [H23S]	3.67
YDPDYIQCPYCQRRFNENAADRAI [H23A]	4.4
YDPDYIQCPYCQRRFNENAADRRI [H23R]	3.96
YDPDYIQCPYCQRRFNENAADRDI [H23D]	4.81
YDPDYIQCPYCQRRFNENAADRII [H23I]	4.21
YDPDYIQCRYCQRRFNENAADRHI [P9R]	2.58
YDPDYIQCWYCQRRFNENAADRHI [P9W]	2.52
YDPDYIQCTYCQRRFNENAADRHI [P9T]	2.55
YDPDYIQCDYCQRRFNENAADRHI [P9D]	3.09
YDPDYIQCEYCQRRFNENAADRHI [P9E]	3.11
YDPDYIQCSYCQRRFNENAADRHI [P9S]	2.95
YDPDYIQCHYCQRRFNENAADRHI [P9H]	2.83
YDPDYIWCPYCQRRFNENAADRHI [Q7W]	2.83
YDPDYIACPYCQRRFNENAADRHI [Q7A]	3.27
YDPDYIDCPYCQRRFNENAADRHI [Q7D]	2.64
YDPDYIGCPYCQRRFNENAADRHI [Q7G]	2.54
YDPDYIMCPYCQRRFNENAADRHI [Q7M]	3.33
YDPDYIRCPYCQRRFNENAADRHI [Q7R]	3.79
YDPDYIECPYCQRRFNENAADRHI [Q7E]	3.87

Variant	protein stability index
YDPDYIHCPYCQRRFNENAADRHI [Q7H]	2.76
YDPDYINCPYCQRRFNENAADRHI [Q7N]	2.89
YDPDYIQCPYCQRRFNENAAMRHI [D21M]	3.94
YDPDYIQCPYCQRRFNENAAIRHI [D21I]	4.63
YDPDYIQCPYCQRRFNENAAVRHI [D21V]	4.25
YDPDYIQCPYCQRRFNENAAWRHI [D21W]	3.51
YDPDYIQCPYCQRRFNENAARRHI [D21R]	4.07
YDPDYIQCPYCQRRFNENAAGRHI [D21G]	3.9
YDPDYIQCPYCQRRFNENAACRHI [D21C]	4.8
YDPDYIQCPYCQRRFNENAAHRHI [D21H]	3.93
YDPDYIQCPYCQRRFNENAAFRHI [D21F]	3.72
YDPDYIQPPYCQRRFNENAADRHI [C8P]	3.72
YDPDYIQEPYCQRRFNENAADRHI [C8E]	4.37
YDPDYIQMPYCQRRFNENAADRHI [C8M]	3.63
YDPDYIQAPYCQRRFNENAADRHI [C8A]	3.88
YDPDYIQYPYCQRRFNENAADRHI [C8Y]	3.43
YDPDYYQCPYCQRRFNENAADRHI [I6Y]	3.23
YDPDYFQCPYCQRRFNENAADRHI [I6F]	3.29
YDPDYGQCPYCQRRFNENAADRHI [I6G]	3.29
YDPDYCQCPYCQRRFNENAADRHI [I6C]	3.7
YDPDYLQCPYCQRRFNENAADRHI [I6L]	3.27
YDPDYEQCPYCQRRFNENAADRHI [I6E]	3.5
YDPDYKQCPYCQRRFNENAADRHI [I6K]	3.71
YDPDYSQCPYCQRRFNENAADRHI [I6S]	3.44

Variant	protein stability index
YWPDYIQCPYCQRRFNENAADRHI [D2W]	3.42
YSPDYIQCPYCQRRFNENAADRHI [D2S]	2.59
YIPDYIQCPYCQRRFNENAADRHI [D2I]	2.38
YKPDYIQCPYCQRRFNENAADRHI [D2K]	4.37
YMPDYIQCPYCQRRFNENAADRHI [D2M]	3.49
YYPDYIQCPYCQRRFNENAADRHI [D2Y]	3.71
YVPDYIQCPYCQRRFNENAADRHI [D2V]	2.37
YLPDYIQCPYCQRRFNENAADRHI [D2L]	2.69
YDPDYIQCPYCQRRFNENAADHHI [R22H]	4.46
YDPDYIQCPYCQRRFNENAADIHI [R22I]	4.03
YDPDYIQCPYCQRRFNENAADQHI [R22Q]	4.59
YDPDYIQCPYCQRRFNENAADKHI [R22K]	4.51
YDPDYIQCPYCQRRFNENAADMHI [R22M]	4.48
YDPDYIQCPYCQRRFNENAADGHI [R22G]	4.24
YDPDYIQCPYCQRRFNENAADLHI [R22L]	4.08
YDPDYIQCPYCQRRFNENAADTHI [R22T]	4.02
YDPDYIQCPYCQRRFNENAADAHI [R22A]	4.49
YDPDYIQCPYCQRRFNESAADRHI [N18S]	4.28
YDPDYIQCPYCQRRFNEAAADRHI [N18A]	4.22
YDPDYIQCPYCQRRFNEKAADRHI [N18K]	4.11
YDPDYIQCPYCQRRFNEGAADRHI [N18G]	3.92
YDPDYIQCPYCQRRFNEQAADRHI [N18Q]	4.76
YDPDYIQCPYCQRRFNEIAADRHI [N18I]	3.36
YDPDYIQCPYCQRRFNEPAADRHI [N18P]	3.91

Variant	protein stability index
YDPDYIQCPYCQRRFNEMAADRHI [N18M]	3.48
LDPDYIQCPYCQRRFNENAADRHI [Y1L]	4.6
CDPDYIQCPYCQRRFNENAADRHI [Y1C]	3.69
ADPDYIQCPYCQRRFNENAADRHI [Y1A]	4.73
SDPDYIQCPYCQRRFNENAADRHI [Y1S]	4.54
EDPDYIQCPYCQRRFNENAADRHI [Y1E]	5.12
IDPDYIQCPYCQRRFNENAADRHI [Y1I]	4.72
YDPDYIQCPYCQRRFNHNAADRHI [E17H]	4.97
YDPDYIQCPYCQRRFNFNAADRHI [E17F]	5.14
YDPDYIQCPYCQRRFNSNAADRHI [E17S]	4.69
YDPDYIQCPYCQRRFNANAADRHI [E17A]	5.13
YDPDYIQCPYCQRRFNKNAADRHI [E17K]	5.07
YDPDYIQCPYCQRRFNLNAADRHI [E17L]	5.16
YDPDYIQCPYCQRRFNNNAADRHI [E17N]	5.01
YDPDYIQCPYCQRRFNCNAADRHI [E17C]	5.13
YDPDYIQCPYCQRRFNTNAADRHI [E17T]	4.91
YDPDYIQCPYCQRRFNINAADRHI [E17I]	5.23
YDPDYIQCPYCQRHFNENAADRHI [R14H]	4
YDPDYIQCPYCQRAFNENAADRHI [R14A]	4.16
YDPDYIQCPYCQRIFNENAADRHI [R14I]	4.64
YDPDYIQCPYCQRVFNENAADRHI [R14V]	4.67
YDPDYIQCPYCQRMFNENAADRHI [R14M]	3.77
YDPDYIQCPYCQRLFNENAADRHI [R14L]	4.28
YDPDYIQCPYCQRRFNENAHDRHI [A20H]	3.95

Variant	protein stability index
YDPDYIQCPYCQRRFNENAEDRHI [A20E]	4.34
YDPDYIQCPYCQRRFNENAIDRHI [A20I]	4.37
YDPDYIQCPYCQRRFNENACDRHI [A20C]	4.44
YDPDYIQCPYCQRRFNENANDRHI [A20N]	4.49
YDPDYIQCPYCQRRFNENATDRHI [A20T]	3.93
YDPDYIQCPYCQRRFNENAPDRHI [A20P]	3.52
YDPDYIQCPYCQRRFNENARDRHI [A20R]	4.24
YDPDYIQCPYCQRRFNENAKDRHI [A20K]	3.76
YDCDYIQCPYCQRRFNENAADRHI [P3C]	3.49
YDIDYIQCPYCQRRFNENAADRHI [P3I]	3.99
YDGDYIQCPYCQRRFNENAADRHI [P3G]	4.67
YDHDYIQCPYCQRRFNENAADRHI [P3H]	3.81
YDQDYIQCPYCQRRFNENAADRHI [P3Q]	3.86
YDKDYIQCPYCQRRFNENAADRHI [P3K]	4.63
YDTDYIQCPYCQRRFNENAADRHI [P3T]	4.65
YDNDYIQCPYCQRRFNENAADRHI [P3N]	4.46
YDLDYIQCPYCQRRFNENAADRHI [P3L]	3.55
YDPDYIQCPYCQRRFNENCADRHI [A19C]	4.42
YDPDYIQCPYCQRRFNENVADRHI [A19V]	3.82
YDPDYIQCPYCQRRFNENDADRHI [A19D]	4.47
YDPDYIQCPYCQRRFNENHADRHI [A19H]	4.12
YDPDYIQCPYCQRRFNENQADRHI [A19Q]	4.37
YDPDYIQCPYCQRRFNENIADRHI [A19I]	4.02
YDPDYIQCPYCQRRFNENEADRHI [A19E]	4.61

Variant	protein stability index
YDPDYIQCPYCQRRFNENYADRHI [A19Y]	3.58
YDPDYIQCPYCQRRFNENLADRHI [A19L]	4.03
YDPDYIQCPYCSRRFNENAADRHI [Q12S]	3.52
YDPDYIQCPYCFRRFNENAADRHI [Q12F]	4.24
YDPDYIQCPYCIRRFNENAADRHI [Q12I]	2.52
YDPDYIQCPYCWRRFNENAADRHI [Q12W]	3.61
YDPDYIQCPYCRRRFNENAADRHI [Q12R]	4.27
YDPDYIQCPYCHRRFNENAADRHI [Q12H]	4.93
YDPDYIQCPYCVRRFNENAADRHI [Q12V]	2.48
YDPDYIQCPYCNRRFNENAADRHI [Q12N]	4.05
YDPDYIQCPYCKRRFNENAADRHI [Q12K]	5.16
YDPDYIQCPYCERRFNENAADRHI [Q12E]	4.04
YDPDYIQCPYCMRRFNENAADRHI [Q12M]	3.85
YDPGYIQCPYCQRRFNENAADRHI [D4G]	4.28
YDPFYIQCPYCQRRFNENAADRHI [D4F]	3.72
YDPAYIQCPYCQRRFNENAADRHI [D4A]	4.26
YDPVYIQCPYCQRRFNENAADRHI [D4V]	3.84
YDPEYIQCPYCQRRFNENAADRHI [D4E]	4.21
YDPDYIQCPLCQRRFNENAADRHI [Y10L]	3.02
YDPDYIQCPHCQRRFNENAADRHI [Y10H]	3.6
YDPDYIQCPKCQRRFNENAADRHI [Y10K]	3.66
YDPDYIQCPDCQRRFNENAADRHI [Y10D]	3.36
YDPDYIQCPFCQRRFNENAADRHI [Y10F]	4.28
YDPDYIQCPQCQRRFNENAADRHI [Y10Q]	3.45

Variant	protein stability index
YDPDYIQCPYCQRRFDENAADRHI [N16D]	3.79
YDPDYIQCPYCQRRFWENAADRHI [N16W]	4.61
YDPDYIQCPYCQRRFSENAADRHI [N16S]	4.56
YDPDYIQCPYCQRRFVENAADRHI [N16V]	4.39
YDPDYIQCPYCQRRFMENAADRHI [N16M]	4.54
YDPDYIQCPYCQSRFNENAADRHI [R13S]	3.62
YDPDYIQCPYCQIRFNENAADRHI [R13I]	2.92
YDPDYIQCPYCQPRFNENAADRHI [R13P]	2.24
YDPDYIQCPYCQERFNENAADRHI [R13E]	3.07
YDPDYIQCPYCQWRFNENAADRHI [R13W]	2.13
YDPDYIQCPYCQVRFNENAADRHI [R13V]	2.23
YDPDYIQCPYCQCRFNENAADRHI [R13C]	3.17
YDPDYIQCPYCQRRHNENAADRHI [F15H]	3.14
YDPDYIQCPYCQRRYNENAADRHI [F15Y]	3.47
YDPDYIQCPYCQRRCNENAADRHI [F15C]	3.34
YDPDYIQCPYCQRRKNENAADRHI [F15K]	3.54
YDPDYIQCPYCQRRANENAADRHI [F15A]	3.08
YDPDYIQCPYCQRRRNENAADRHI [F15R]	3.59
YDPDYIQCPYCQRRTNENAADRHI [F15T]	2.48
YDPDYIQCPYCQRRLNENAADRHI [F15L]	3.77
